Measurements from US20250179196A1 (Janssen / Centocor, published 2025).

T1: human IL-23R expressed on the cell surface of stably transfected iLite and HEK cell lines (human, UniProt Q5VWK5 24-629)
T1 construct: whole, on cells; Same receptor on two transfected cell lines; the cell line is named under assay; also called human IL-23R iLite cells; human IL-23R HEK cells
T1 sequence (looked up): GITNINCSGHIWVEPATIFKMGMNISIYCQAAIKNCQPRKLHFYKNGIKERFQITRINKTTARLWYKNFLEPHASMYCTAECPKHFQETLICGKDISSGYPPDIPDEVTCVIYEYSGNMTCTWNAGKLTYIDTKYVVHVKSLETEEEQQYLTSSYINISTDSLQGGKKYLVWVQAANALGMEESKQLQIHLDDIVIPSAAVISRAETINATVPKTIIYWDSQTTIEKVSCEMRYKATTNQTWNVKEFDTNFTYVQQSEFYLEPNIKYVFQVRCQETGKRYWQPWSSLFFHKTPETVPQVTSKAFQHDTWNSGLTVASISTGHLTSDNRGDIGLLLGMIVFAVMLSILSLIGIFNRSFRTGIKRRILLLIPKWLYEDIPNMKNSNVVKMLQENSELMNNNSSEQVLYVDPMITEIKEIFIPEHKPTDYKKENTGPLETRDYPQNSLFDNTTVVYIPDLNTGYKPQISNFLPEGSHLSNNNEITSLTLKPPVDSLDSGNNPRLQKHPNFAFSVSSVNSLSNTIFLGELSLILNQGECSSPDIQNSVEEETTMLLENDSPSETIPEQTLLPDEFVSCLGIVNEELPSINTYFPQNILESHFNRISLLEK


Tests used:
[1] = target: T1, human IL-23R expressed on the cell …; test: flow cytometry on human IL-23R HEK cells, Expt D (8-point, 96well)
Summary of the method: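 Serially diluted IL-23R mAbs bound to mixed HEK-IL-23R and parental HEK cells for 30 min at 37 °C, in duplicate. After washes, 647 detection antibody geometric MFI measured on single viable (Sytox Green-negative) cells and fitted to a variable-slope dose-response against log mAb concentration.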

[2] = target: T1, human IL-23R expressed on the cell …; test: flow cytometry on human IL-23R HEK cells, Expt E (11-point, 384well)
Summary of the method: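 Antibody bound to HEK-IL-23R cells 30 min at 37 °C over 11 concentrations; after washes, Sytox Green added and cells run on iQue. Geometric MFI of 647 detection antibody on single viable cells fitted by variable-slope dose–response.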

| EC50 [1] [nM] | EC50 [2] [nM] | MFI (6.4 nM) [2] [MFI] | Binder |
| --- | --- | --- | --- |
| 2 | > 50 | 90100 | I23RB188 (antibody, mouse IgG2a, kappa, V domains shown, immunization; mouse IgG2a/kappa) VH: QIQLVQSGPELKKPGETVKISCKASGYTFTNYGMNWVKQAPGKGLKWMGWINTYTGAPTYADDFKGRFAFSLETSASTAYLQINNFKNEDTATYFCARGNGYPYYYGINYWGQGTSVTVSS VL: DVQMIQSPSSLSASLGERVSLTCRASQEISGNLSWLQQKPDGTIKRLIYAASTLDSGVPKRFSGSRSGSDYSLTISSLESEDFADYYCLQYASYPWTFGAGTRLEIKR |
| 0.4 | 7.4 | 100000 | I23RB173 (antibody, mouse IgG2a, kappa, V domains shown, immunization; mouse IgG2a/kappa) VH: DVQLQESGPGLVKPSQSLSLTCSVTGYSITSGYYWNWIRQFPGNKLEWMGYISYDGGNNYNPSLKNRISITRDTSKNQFFLKLNSVTTEDTATYYCARDAGLLPYYAMDYWGQGTTLTVSS VL: DIKMTQSPAIMSASPGEKVTITCSASSSVSYMHWFQQKPGTSPKLWIYSTSNLASGVPARFSGSGSGTSYSLTISRMEAEDAATYYCQQRSSYPLTFGDGTKLEMKR |
| 3.4 | 22.1 | 73000 | I23RB168 (antibody, mouse IgG2a, kappa, V domains shown, immunization; mouse IgG2a/kappa) VH: QIQLVQSGPELVKPGASVKMSCKTSGYTFTDYYINWVKQRPGQGLEWIGWIYPAINNTNYNEKFKGKATLTVDTSSRTAYMQLNSLTSEDSAVYFCAISRKPYFDYWGQGTTLTVSS VL: DIQMTQSSSSFSVSLGDRVTITCKASEDLYNRLAWYQQKPGNAPRLLISGATSLGTGVLSRFSGSGSGKDYTLSITSLQTEDVATYYCQQYWSIPWTFGAGTKLELKR |
| 0.7 | 15.4 | 132000 | I23RB169 (antibody, mouse IgG2a, kappa, V domains shown, immunization; mouse IgG2a/kappa) VH: QIQLVQSGPELKKPGETVKISCKASGYTFTTVGMQWVQKMPGKGFKWIGWINTHSGEPKYTDDFKGRFAFSLETSASTAYLQISNLKSEDTATYFCARSSALTGAFAYWGQGTLVTVSS VL: DIKMTQSPASLAVSLGQRATISCRASKSVSTSDYSYMHWYQQKPGQPPKLLIYLASNLESGVPARFSGSGSGTDFTLNIHPVEEEDAATYYCQHSRELPRTFGAGTKLELKR |
| 36.4 | > 50 | 26200 | I23RB182 (antibody, mouse IgG2a, kappa, V domains shown, immunization; mouse IgG2a/kappa) VH: EVQLQQSGPGLVKPSQSLSLTCSVTGYSITSGYFWNWLRQFPGSKLEWMGFIDNDGSNDYNPSLKNRISITRDTSKNQFFLRLNSVTTEDTATYYCARGRLGFFDSWGPGTTLTVSS VL: DIVMTQSPAIMSASLGEKVTMSCRASSSVNYMYWYQQKSDASPKLWIYYTSNLAPGVPARFSGSGSGNSYSLTISSMEGEDAATYYCQQFTNSPWTFGAGTKLELKR |
| 0.3 | 11.6 | 198000 | I23RB166 (antibody, mouse IgG2a, kappa, V domains shown, immunization; mouse IgG2a/kappa) VH: DVQLQESGPGLVKPSQTVSLTCTVTGYSITNGNHWWNWIRQVSGSKLEWIGYIRSSGSTDSNPSLKSRISITRDTSKNQLFLQLNSVTAEDIATYYCARERLRLRWSYFDYWGQGTTLTVSS VL: DIVMTQSHKFMSTSVGARVSITCKASQDVSTAVAWYQQKPGQSPKLLIYSASYRYTGVPDRFTGSGSGTDFTFTISSVQAEDLAVYYCQQHYSTPRTFGGGTKLEIKR |

The next lines start with the binder.

| Binder | EC50 [1] [nM] | EC50 [2] [nM] | MFI (6.4 nM) [2] [MFI] |
| --- | --- | --- | --- |
| I23RB73 (antibody, mouse IgG2a, kappa, V domains shown, immunization; mouse IgG2a/kappa) VH: EVQLQQSGAELVKPGASVKISCKASGYTFTDHAIHWVKQRPEQGLEWIGYISLGNGDIKYSEKFRGKATLTADKTSNTAYMQLNSLTSEDSAVYFCKRSRVLRWTTYWYFDVWGAGTSVTVSS VL: DIVMTQSHKFMSTSVGDRVSITCKASQDVSTAVAWYQQKPGQSPKLLIYWASTRLTGVPDRFTGSGSGTDYTLTISSVQAEDLALYYCQQYYNTPLTFGAGTKLELKR | 1.8 | 11.6 | 158000 |
| I23RB61 (antibody, mouse IgG2a, kappa, V domains shown, immunization; mouse IgG2a/kappa) VH: DVQLQESGAELVKPGASVKLSCKSFDYTFTSFDINWMKQRPGQGLEWIGWIFPGSGTTNYNEKFKGKATLTADKSSSTAYMHLTSLTSEDSAVYFCARRLTGTRYFDVWGTGTTLTVSS VL: DIQMTQSHKFLSTSVGDRITITCKASQDVITAVAWYQQKSGQSPKLLIYWASTRHTGVPDRFTGSGSGTDYTLTISNVQAEDLALYYCQQHYTTPPTFGAGTKLELKR | 0.6 | > 50 | 118000 |
| I23RB162 (antibody, mouse IgG2a, kappa, V domains shown, immunization; mouse IgG2a/kappa) VH: EFQLQQSGPELVKPGASVKMSCKASGYTFTNYVMHWVKQKPGQGLEWIGYINPYNDGTKYNEKFKGKATLTSDKSSSTAYMELSSLTSEDSAVYYCARSRTGTRWYFDVWGAGTTVTVSS VL: DIVMTQSQKFMSTSVGDRVSVTCKASQNVGTNVAWYQQKPGQSPKALIYSASYRYSGVPDRFTGSGSGTDFTLTISNVQSEDLAEYFCQQYNSYPFTFGSGTKLEIKR | 0.1 | 2.8 | 269000 |
| I23RB60 (antibody, mouse IgG2a, kappa, V domains shown, immunization; mouse IgG2a/kappa) VH: DVQLQESGPELVKPGDSVKMSCEASGYTFTDYYIDWVKQSHGKSLEWIGYIYPNNGGISFNQKFEGKATLTVDKSSSTAYMELHSLTSEDSAVYYCAREKLRGRDYWGQGTTLTVSS VL: DIVMTQSTSSLSASLGDRVTISCRASQDIRNNLNWYQQKPDGTVKLLIFYSSRLHSGVPSRFSGSGSGTDYSLTISNLEQEDIATYFCQQGHTLPWTFGAGTKLELKR | 0.6 | 27.7 | 93700 |
| I23RB31 (antibody, mouse IgG2a, kappa, V domains shown, immunization; mouse IgG2a/kappa) VH: EFQLQQSGAEMVRPGASVKLSCKASGYTFTGYWMNWVKQRPGQGLEWIGKIDPSDTETHYNQNFKDKATLTVDKSSSTAYMQLNSLTSEDSAVYYCARWGLGRNFAMDYWGQGTTLTVSS VL: DIVLTQSPATLSVTPGDRVSLSCRASQSISDHLHWYQQKSHESPRLLIKFASQSISGIPSRFSGSGSGSDFTLSIDSVEPEDVGVYYCQNGHSFPLTFGSGTKLEIKR | 1.7 | > 50 | 78600 |
| I23RB36 (antibody, mouse IgG2a, kappa, V domains shown, immunization; mouse IgG2a/kappa) VH: QIQLVQSGAELVKPGASVKLSCTTSGFNIKDTYIHWMKQRPEQGLEWIGRIDPANGNTIYASKFQGKATLTTDTSSNTAYMLLSSLTSGDTAVYYCTRGTSWFAYWGQGTTVTVSS VL: DIVMTQSPKSMSMSVGERVTLSCKASENVGTSVSWFQQKPEQSPKLLIYGASNRYTGVPDRFTGSGSATDFTLTISSVQAEDLADYHCGQSYSYPRTFGGGTKLEIKR | 0.4 | 7.3 | 171000 |
| I23RB58 (antibody, mouse IgG2a, kappa, V domains shown, immunization; mouse IgG2a/kappa) VH: EVKLVESGGGLVKPGGSLKLSCAASGFSFIIYTMSWVRQTPEKRLEWVAYITSGGGITYYPDSVKGRFTISRDNARNTLYLQMSSLRSEDTAMYYCARHEGDYYDDYYRIGYAMDYWGQGTSVTVSS VL: DIVMTQTPASLAVSLGQRATISCRASESVDSYGNSFMHWYQQKPGQPPKLLIYRASNLESGIPARFSGSGSRTDFTLTINPVEADDVATYYCQQSNEDPLTFGAGTKLEMKR | 23.1 | 11.6 | 150000 |
| I23RB165 (antibody, mouse IgG2a, kappa, V domains shown, immunization; mouse IgG2a/kappa) VH: EVQLQQSGAELVRPGASVKLSCTASGFNIKDSLMHWVKQRPEQGLEWIGWIDPEDGKTKYAPKFQDKATITADTSSNTAYLQLSSLTSEDTAIYYCARREVLDYFDYWGQGTTLTVSS VL: DIVMTQSPASLAVSLGQRATISCRASKSVSTSGYSYMHWYQQKPGQPPKLLIYLASNLESGVPARFSGSGSGTDFTLNIHPVEEEDAATYYCQHSRELPLTFGAGTKLEMKR | 0.6 | 9.7 | 116000 |
| I23RB27 (antibody, mouse IgG2a, kappa, V domains shown, immunization; mouse IgG2a/kappa) VH: QVQLKESGPDLVQPSQTLSLTCTVSGFSLTSYGVHWVRQPPGKGLEWVGTLGWDDKKSYNSALKSRLSISRDTSKSQVFLKLSSLQTEDTAMYYCTKEDVSYAMDFWGQGTTLTVSS VL: DIQMTQSPTSLAVSLGQRATISCRASESVEYYGTSLMHWYQQKPGQPPKLLIYAASNVESGVPARFSGSGSGTDFSLNIHPVEEEDIAMYFCQQGKKVPWTFGAGTKLEMKR | 3.5 | > 50 | 153000 |
| I23RB71 (antibody, mouse IgG2a, kappa, V domains shown, immunization; mouse IgG2a/kappa) VH: DVQLQESGPDLVKPSQSLSLTCTVTDYSITRGYNWHWIRQFPGNKLEWMGYIHYSGSTNYNPSLKSRISITRDTSKNQFFLQLNSVTTEDTATYYCARQYGLKAMDYWGQGTSVTVSS VL: DIVMTQSHKFMSTSVGDRVSITCKASQDVITAVAWYQQKPGQSPKLLIYSASYRYTGVPDRFTGSGSGTDFTFTISSVQAEDLAVYFCQQHFGTPYTFGSGTKLEMKR | ~6.7 | 3.4 | 110000 |
| I23RB39 (antibody, mouse IgG2a, kappa, V domains shown, immunization; mouse IgG2a/kappa) VH: EVQLQQSGPELVKPGAPVKISCKASGYTFTNYYIHWVKQRPGQGLEWIGYIYPGNGGTAYNQKFKDKATLTADNPSSTAYMQLSSLTSEDSAVYFCARSRGGSRNYFDYWGQGTTLTVSS VL: DIQMTQSHKFMSTSVGDRVSITCKASQDVSTAVAWYQQKPGQSPKLLIYSAFYRYTGVPDRFTGSGSGTDFTFTISSVQAEDLAVYYCQQHYSSPRTFGAGTKLELKR | 0.3 | 3.8 | 277000 |
